Results as given in IntAct's records for PubMed 35512704.

B1: Speckle-type POZ protein (Homo sapiens), O43791 (parent)
chain: MSRVPSPPPPAEMSSGPVAESWCYTQIKVVKFSYMWTINNFSFCREEMGEVIKSSTFSSGANDKLKWCLRVNPKGLDEESKDYLSLYLLLVSCPKSEVRAKFKFSILNAKGEETKAMESQRAYRFVQGKDWGFKKFIRRDFLLDEANGLLPDDKLTLFCEVSVVQDSVNISGQNTMNMVKVPECRLADELGGLWENSRFTDCCLCVAGQEFQAHKAILAARSPVFSAMFEHEMEESKKNRVEINDVEPEVFKEMMCFIYTGKAPNLDKMADDLLAAADKYALERLKVMCEDALCSNLSVENAAEILILADLHSADQLKTQAVDFINYHASDVLETSGWKSMVVSHPHLVAEAYRSLASAQCPFLGPPRKRLKQS
partner: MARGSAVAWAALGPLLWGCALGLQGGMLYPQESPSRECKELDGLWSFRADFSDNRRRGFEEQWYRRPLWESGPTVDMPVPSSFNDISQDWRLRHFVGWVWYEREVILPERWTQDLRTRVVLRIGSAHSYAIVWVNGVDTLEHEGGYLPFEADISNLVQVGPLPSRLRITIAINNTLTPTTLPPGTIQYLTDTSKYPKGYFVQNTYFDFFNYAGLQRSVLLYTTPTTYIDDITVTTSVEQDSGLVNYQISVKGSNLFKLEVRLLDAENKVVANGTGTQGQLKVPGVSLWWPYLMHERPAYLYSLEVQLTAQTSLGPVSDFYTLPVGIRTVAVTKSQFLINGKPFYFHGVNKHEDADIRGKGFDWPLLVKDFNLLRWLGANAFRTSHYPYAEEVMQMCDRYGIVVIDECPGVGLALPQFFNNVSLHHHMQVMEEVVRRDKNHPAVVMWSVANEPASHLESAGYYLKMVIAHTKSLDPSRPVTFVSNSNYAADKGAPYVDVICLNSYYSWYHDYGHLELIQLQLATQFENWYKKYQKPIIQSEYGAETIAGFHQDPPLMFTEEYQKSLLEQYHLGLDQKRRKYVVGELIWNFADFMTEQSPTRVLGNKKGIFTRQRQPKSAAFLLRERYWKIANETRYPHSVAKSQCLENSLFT
B2: Speckle-type POZ protein (Homo sapiens), O43791 (parent)
chain: B1 chain
partner: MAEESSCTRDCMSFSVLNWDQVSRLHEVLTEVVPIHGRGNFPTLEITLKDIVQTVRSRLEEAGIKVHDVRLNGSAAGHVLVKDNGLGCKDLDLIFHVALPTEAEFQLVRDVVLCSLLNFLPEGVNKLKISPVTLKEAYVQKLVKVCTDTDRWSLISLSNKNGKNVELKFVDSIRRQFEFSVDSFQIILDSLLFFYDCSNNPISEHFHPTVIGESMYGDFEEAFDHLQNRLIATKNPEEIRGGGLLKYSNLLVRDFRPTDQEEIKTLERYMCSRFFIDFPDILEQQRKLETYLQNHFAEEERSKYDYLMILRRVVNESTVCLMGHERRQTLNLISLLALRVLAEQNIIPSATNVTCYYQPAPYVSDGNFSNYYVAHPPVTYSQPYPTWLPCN
B3: Speckle-type POZ protein (Homo sapiens), O43791 (parent)
chain: B1 chain
partner: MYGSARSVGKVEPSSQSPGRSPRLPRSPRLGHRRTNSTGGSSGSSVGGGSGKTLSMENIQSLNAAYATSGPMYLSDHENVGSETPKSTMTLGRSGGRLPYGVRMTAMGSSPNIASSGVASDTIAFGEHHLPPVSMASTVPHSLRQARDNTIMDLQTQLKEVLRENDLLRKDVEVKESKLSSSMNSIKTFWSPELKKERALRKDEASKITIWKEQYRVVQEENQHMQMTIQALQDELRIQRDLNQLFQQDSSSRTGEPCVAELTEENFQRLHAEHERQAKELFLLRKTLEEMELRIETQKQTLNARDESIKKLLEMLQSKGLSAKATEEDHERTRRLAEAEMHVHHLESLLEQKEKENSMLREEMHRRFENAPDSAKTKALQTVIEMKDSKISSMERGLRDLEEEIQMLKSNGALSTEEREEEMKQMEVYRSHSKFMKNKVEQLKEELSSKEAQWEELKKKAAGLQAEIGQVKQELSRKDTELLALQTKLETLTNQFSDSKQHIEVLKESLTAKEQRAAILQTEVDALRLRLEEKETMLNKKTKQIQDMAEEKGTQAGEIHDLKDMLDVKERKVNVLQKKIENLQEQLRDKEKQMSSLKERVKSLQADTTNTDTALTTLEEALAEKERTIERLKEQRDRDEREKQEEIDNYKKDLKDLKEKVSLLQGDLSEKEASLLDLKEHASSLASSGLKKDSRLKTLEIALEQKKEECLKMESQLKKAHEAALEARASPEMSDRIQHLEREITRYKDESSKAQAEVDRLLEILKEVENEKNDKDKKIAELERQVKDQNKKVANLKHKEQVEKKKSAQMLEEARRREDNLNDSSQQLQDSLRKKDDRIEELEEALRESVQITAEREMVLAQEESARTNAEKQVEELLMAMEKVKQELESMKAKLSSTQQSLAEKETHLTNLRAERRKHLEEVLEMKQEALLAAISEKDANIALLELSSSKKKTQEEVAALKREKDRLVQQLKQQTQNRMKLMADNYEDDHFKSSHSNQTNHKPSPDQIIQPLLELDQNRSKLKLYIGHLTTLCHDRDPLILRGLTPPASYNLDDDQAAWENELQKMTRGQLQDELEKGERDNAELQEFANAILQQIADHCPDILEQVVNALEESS
B4: Speckle-type POZ protein (Homo sapiens), O43791 (parent)
chain: B1 chain
partner: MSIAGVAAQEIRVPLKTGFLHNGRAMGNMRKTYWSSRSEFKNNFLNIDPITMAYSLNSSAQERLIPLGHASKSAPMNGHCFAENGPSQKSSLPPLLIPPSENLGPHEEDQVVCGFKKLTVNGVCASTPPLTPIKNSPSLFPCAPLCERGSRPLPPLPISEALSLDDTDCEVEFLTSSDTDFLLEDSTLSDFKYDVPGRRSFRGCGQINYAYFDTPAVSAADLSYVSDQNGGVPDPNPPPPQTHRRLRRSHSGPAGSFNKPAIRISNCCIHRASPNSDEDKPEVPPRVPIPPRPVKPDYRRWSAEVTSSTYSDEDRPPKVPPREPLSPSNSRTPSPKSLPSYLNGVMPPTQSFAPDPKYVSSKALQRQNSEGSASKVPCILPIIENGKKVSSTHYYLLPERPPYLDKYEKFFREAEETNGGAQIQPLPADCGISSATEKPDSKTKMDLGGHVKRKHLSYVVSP

Variants of: B1
Conditions: with bglr_human GUSB

Variant	effect of a mutation on the interaction
F102C	with no effect

Variants of: B2
Conditions: with tet5c_human TENT5C

Variant	effect of a mutation on the interaction
F133V	with no effect

Variants of: B2
Conditions: with tet5c_human TENT5C
Remark: another data set of the same source

Variant	effect of a mutation on the interaction
F133L	with no effect

Variants of: B2
Conditions: with tet5c_human TENT5C
Remark: another data set of the same source

Variant	effect of a mutation on the interaction
F102C	with no effect

Variants of: B2
Conditions: with tet5c_human TENT5C
Remark: another data set of the same source

Variant	effect of a mutation on the interaction
Y87C	with no effect

Variants of: B3
Conditions: with rb6i2_human ERC1, Q8IUD2

Variant	effect of a mutation on the interaction
Y87C	with no effect

Variants of: B3
Conditions: with rb6i2_human ERC1, Q8IUD2
Remark: another data set of the same source

Variant	effect of a mutation on the interaction
F133V	with no effect

Variants of: B4
Conditions: with errfi_human ERRFI1, Q9UJM3

Variant	effect of a mutation on the interaction
Y87C	with no effect

Variants of: B4
Conditions: with errfi_human ERRFI1, Q9UJM3
Remark: another data set of the same source

Variant	effect of a mutation on the interaction
F102C	with no effect

Variants of: B4
Conditions: with errfi_human ERRFI1, Q9UJM3
Remark: another data set of the same source

Variant	effect of a mutation on the interaction
F133L	with no effect

Variants of: B4
Conditions: with errfi_human ERRFI1, Q9UJM3
Remark: another data set of the same source

Variant	effect of a mutation on the interaction
F133V	with no effect
